Molecular target: the molecule itself
Assay: SDS-PAGE without reducing agent (oligomerization assay) with Western blot; PLY 0.4 uM in solution without cholesterol or membranes, incubated 1 hr at 37°C with 0, 2.18, 4.36 or 8.73 uM EGCG (control with DMSO only); 5x loading buffer without β-ME, 10 min at 50°C; 6% SDS-PAGE, Western blot; oligomerization reduced by EGCG in a concentration-dependent manner

B1: Pneumolysin (PLY), wild type, His-tagged (natural protein, Streptococcus pneumoniae D39, UniProt Q04IN8 1-471, looked up)
chain: MANKAVNDFILAMNYDKKKLLTHQGESIENRFIKEGNQLPDEFVVIERKKRSLSTNTSDISVTATNDSRLYPGALLVVDETLLENNPTLLAVDRAPMTYSIDLPGLASSDSFLQVEDPSNSSVRGAVNDLLAKWHQDYGQVNNVPARMQYEKITAHSMEQLKVKFGSDFEKTGNSLDIDFNSVHSGEKQIQIVNFKQIYYTVSVDAVKNPGDVFQDTVTVEDLKQRGISAERPLVYISSVAYGRQVYLKLETTSKSDEVEAAFEALIKGVKVAPQTEWKQILDNTEVKAVILGGDPSSGARVVTGKVDMVEDLIQEGSRFTADHPGLPISYTTSFLRDNVVATFQNSTDYVETKVTAYRNGDLLLDHSGAYVAQYYITWDELSYDHQGKEVLTPKAWDRNGQDLTAHFTTSIPLKGNVRNLSVKIRECTGLAWEWWRTVYEKTDLPLVRKRTISIWGTTLYPQVEDKVEND
notes: no cleavage of the tag is described; also called PLY-WT
binding result: binds

— PMC5618700
